How the values were obtained:
[1] = molecular target: β2AR–SmBit (UniProt P07550); test: split reporter (BiFC, NanoBiT); NanoLuc complementation in intact HEK 293 cells cotransfected with receptor–SmBit and LgBit–mG; total luminescence with furimazine against agonist concentration
[2] = molecular target: β2AR–Rluc8 (UniProt P07550); test: FRET or BRET; intact HEK 293 cells with agonist; receptor–Rluc8 or receptor–Nluc as donor, NES–venus–mG as acceptor; net BRET; DPBS, 96-well plates
[3] = molecular target: cerulean–β2AR (UniProt P07550); test: calibrated confocal fluorescence intensities at the plasma membrane; HEK 293 cells expressing cerulean-β2AR and venus–mGs, 10 μM isoproterenol, steady state; venus and cerulean intensities calibrated with the standard protein cerulean–TM–venus; n = 17

In the case of LgBit–mGs, the fold increase in luminescence intensity on agonist stimulation [1] was less than 20 fold.
With NES–venus–mGs (domain or fragment) the time to dissociate after addition of the inverse agonist ICI 118,551 [2] was greater than 15 min.
With venus–mGs (domain or fragment) the stoichiometry N (venus–mGs per cerulean–β2AR) [3] was 1.17.
